Experimental data reported in patent US12391768B2, “Antibodies to ticagrelor and methods of use” (MEDIMMUNE LIMITED, priority 2014, dated 2025).
Where two headings read alike, the source gives them in different places.

Experiments:
[1] = human, in vivo; cited from earlier work
TICA0010 Fab = test: HTRF competition binding selectivity assay, TICA0010 His-Fab; set-up: species or system human; conditions: first series (Table 2), not DMSO normalised; read-out: IC50 (uM) for inhibition of biotinylated ticagrelor binding to TICA00l0 his-Fab
Method: (§1) Total Binding control wells were set up which contained all of the assay components above except that 5 ul assay buffer was added in place of the test selectivity compound addition. Negative Binding control wells were set up which contained all of the assay components included in the Total Binding control wells except that 5ul assay buffer was added in place of the His-Fab addition. Test compound serial titrations were either ½ or ⅓ depending on the particular experiment and top final assay compound concentrations were optimized on a compound specific basis. The concentration of biotinylated ticagrelor and His-Fab was optimized on a Fab specific basis in separate experiments. For the four Fabs investigated at the end of the lead isolation phase (TICA0010, TICA0049, TICA0053 and TICA0072) the final assay reagent concentrations used are set out in Table 1 below:
(§2) For the two Fabs investigated at the end of the lead optimization phase (TICA0162 and TICA0212) the final assay reagent concentrations used were 5nM biotinylated ticagrelor and 1 nM His Fab in both cases. […] In order to enable subsequent normalization of data to correct for any such vehicle related effects parallel titrations of DMSO alone were included in most experiments in which the final assay DMSO concentrations mirrored those of the test compound serial dilutions. At the end of the set up procedure that assay was incubated for 3hrs at RT before being read on an Envision plate reader using a standard read protocol.
(§3) The negative ratio value used in the calculation of % Delta F was derived from the Negative Binding control wells. % Delta F values were then used to calculate % Specific Binding values according to the equation below: Specific Binding (%)={(Sample Delta F−Negative Binding Delta F)/(Total Binding Delta F−Negative Binding Delta F)}×100
(§4) For standard calculations of % Specific Binding Total Binding Delta F was taken from Total Binding control wells which contained all of the aforementioned components of the assay but without inclusion of any competing test compound.
(§5) In those experiments where DMSO normalization was applied DMSO normalised % Specific Binding was calculated essentially according to the equation above except that in this case Total Binding Delta F was taken from wells containing all of the components in the Total Binding control wells as well as DMSO at a concentration equivalent to that in the relevant sample well.

TICA0049 Fab = test: HTRF competition binding selectivity assay, TICA0049 His-Fab; set-up: species or system human
Method: as §1, §2, §3, §4, §5
In a second series of experiments further selectivity data was generated for TICA0049 and TICA0072 Fabs in which a subset of four of the twelve compounds listed in FIG. 4 were retested along with ticagrelor, TAM and TIM and several adenosine related compounds. Here, in a refinement to the earlier investigations in Table 2, experiments were designed in order to enable normalisation of percent specific binding values to correct for any non-specific vehicle related effects due to DMSO. Example plotted data from this second series of experiments is shown in FIG. 5A-F along with tabulated IC50 values in Table 3.

[2] = tested on: TAM mediated inhibition of ADP-induced platelet aggregation; test: Light transmission aggregometry in human PRP, reversal of TAM; format: cell-based; conditions: for mean extent of TAM reversal: Example 10, 1 μM Fab, n=3
Method: The extent and potency of TICA0212/MEDI2452 to reverse ticagrelor or TAM mediated inhibition of ADP-induced platelet aggregation was determined in human platelet rich plasma (PRP) using light transmission aggregometry.
For the in vitro human PRP assay, blood was collected from fasted healthy volunteers by vein puncture of vena cephalica. […] The anticoagulated human blood was centrifuged at 240× g for 15 min. PRP was carefully removed and transferred to a clean vial. Platelet poor plasma (PPP) was prepared by centrifugation of the PRP at 2000× g for 15 min. Light transmission aggregometry (LTA) was evaluated in PRP by the Platelet Aggregation Profiler (PAP-8E, Bio/Data Corporation, PA, USA.). Zero % aggregation was defined as the light transmission of PRP and 100% aggregation was defined as the light transmission of PPP.
PRP was preincubated with 1 μM ticagrelor or TAM for 1 hour before co-incubating with different concentrations of TICA0212 or an isotype control Fab for 30 minutes. Platelet aggregation was initiated by addition of 20 uM ADP and was continuously recorded for 6 min. Data for final aggregation (FA) extent at 6 min was analysed.
The time of onset of TICA0212/MEDI2452 to reverse ticagrelor or TAM was determined in human platelet rich plasma (PRP) using light transmission aggregometry as in example 8. PRP was preincubated with 1 μM ticagrelor or TAM for 1 hour before adding 1 μM TICA0212/MEDI2452 and co-incubating for 5, 10, 15, 30 and 60 min, or adding an isotype control Fab for 30 min. Platelet aggregation was initiated by addition of 20 μM ADP and was continuously recorded for 6 min. Data for final aggregation (FA) extent at 6 min was analyzed.

For CCCSc1nc(N[C@@H]2C[C@H]2c2ccc(F)c(F)c2)c2nnn([C@@H]3C[C@H](OCCO)[C@@H](O)[C@H]3O)c2n1 [Ticagrelor, (1S,2S,3R,5S)-3-[7-{[(1R,2S)-2-(3,4-difluorophenyl)cyclopropyl]amino}-5-(propylthio)-3H-[1,2,3]triazolo[4,5-d]pyrimidin-3-yl]-5-(2-hydroxyethoxy)cyclopentane-1,2-diol], the circulating half-life [1] is given as 8 h, the IC50 (TICA0010 Fab) is given as 0.122 µM and the IC50 (TICA0049 Fab; first series (Table 2), not DMSO normalised, read-out: IC50 (uM) for inhibition of biotinylated ticagrelor binding to TICA0049 his-Fab) is given as 0.257 µM. The IC50 (TICA0049 Fab; second series (Table 3), DMSO normalised, read-out: IC50 in competition binding selectivity studies, TICA0049) was 0.368 µM.

B1: TICA0212: combination of TICA0162 and TICA0152; VH SEQ ID NO:72, VL SEQ ID NO:77 (antibody, listed as Homo sapiens, V domains shown)
VH: QVQLQESGAEVKKPGSSVRVSCKASGGTFDSYSIHWVRQAPGQGLEWMGGIIPAFGTLSSAQDFQARVTISADKSTSTAYMELSGLRSEDTAVYYCARGSFDYYFWSASHPPNDALAIWGQGTLVTVSS
VL: QSVVTQPPSVSAAPGQKVTISCSGSNSDIGNNYVSWYQQLPGTAPKLLIYDNNKRPSGIPDRFSGSKSGTSATLAITGLQAGDEADYYCGTWLYDRAVGLFGGGTKVTVL
For B1, the IC50 ([2]; 1 μM TAM, 20 μM ADP, human PRP, 30 min co-incubation, mean n=5, read-out: IC50, half-maximum reversal of TAM mediated inhibition of ADP-induced platelet aggregation) was 780 nM, the “mean extent of reversal of TAM” value ([2]; Example 9, 1:1 conditions (1 μM Fab: 1 μM TAM), 30 min incubation) was 62% and the “mean extent of TAM reversal” value ([2]; 1 μM TAM, co-incubation 5 min) was 53%. The “mean extent of TAM reversal” value ([2]; 1 μM TAM, co-incubation 10 min) was 56%, the “mean extent of TAM reversal” value ([2]; 1 μM TAM, co-incubation 15 min) was 58% and the “mean extent of TAM reversal” value ([2]; 1 μM TAM, co-incubation 30 min) was 69%. For the same molecule, the “mean extent of TAM reversal” value ([2]; 1 μM TAM, co-incubation 60 min) was 74%.
